Molecular target: T1, Flag-tagged Cavβ3-subunit (rat, UniProt P54287 1-484)
T1 construct: whole, on cells; Flag-tagged in co-immunoprecipitation, pull-down and immunofluorescence; also called Flag-Cavβ3; N-Flag Cavβ3-subunits
Assay: dissociation of β3 from GST-AID by peptide, Western blot of the supernatant
Procedure: B, BARP displaces the Caᵥβ3-subunit from the AID. In vivo expressed Caᵥβ3-subunits were pulled-down using a GST-AID fusion protein and the complex then incubated with increasing amounts of AID or BARP Domain I peptide. The Caᵥβ3-subunit displaced from the GST-AID was monitored by Western blot.
Preparation of cell homogenates lysed into a buffer containing (50 mM Tris-HCl (pH 7.5), 100 mM NaCl, 1 mM MgCl₂, 0.5% Triton) supplemented with proteases inhibitors, co-immunoprecipitation and Western blot analysis using the generated antibodies together with monoclonal anti-FLAG(M2; Sigma), rabbit anti-GST (Santa Cruz Biotechnology), rabbit Caᵥ1.2 (Chemicon International), Caᵥ2.1(Alomone labs), Caᵥ2.2 (Calbiochem), Caᵥβ₃ (Alomone labs) antibodies were carried out essentially as described in. Brain, skeletal muscle and heart lysates were purchased from Zyagen Laboratories. In vitro synthesized BARP was produced by using the TNT quick coupled transcription/translation systems (Promega). For the dissociation experiments, an AID peptide ([…]) and a BARP domain I peptide ([…]) were synthesized (Mimotopes). […] After extensive wash to remove unassociated β₃-subunits, increasing concentration of peptide (30, 60, 300, 600 nM) were added. After an incubation of four hours, 10% of the supernatant containing the dissociated β₃-subunit were loaded on SDS-PAGE and subjected to Western blot analysis. […]

T1 sequence (P54287 whole entry): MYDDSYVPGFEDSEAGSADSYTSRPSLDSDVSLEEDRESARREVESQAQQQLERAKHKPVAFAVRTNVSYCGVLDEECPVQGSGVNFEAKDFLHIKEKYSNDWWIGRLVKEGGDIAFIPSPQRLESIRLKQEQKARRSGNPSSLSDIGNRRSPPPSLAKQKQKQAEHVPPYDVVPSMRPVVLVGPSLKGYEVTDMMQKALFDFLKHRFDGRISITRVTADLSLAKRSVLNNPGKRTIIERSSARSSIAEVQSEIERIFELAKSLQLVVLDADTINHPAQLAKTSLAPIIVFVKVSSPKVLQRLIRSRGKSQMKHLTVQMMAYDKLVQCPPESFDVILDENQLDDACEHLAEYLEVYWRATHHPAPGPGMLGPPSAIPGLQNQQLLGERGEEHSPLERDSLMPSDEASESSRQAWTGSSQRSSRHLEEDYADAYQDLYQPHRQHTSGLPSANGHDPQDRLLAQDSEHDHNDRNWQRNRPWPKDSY

B1: BARP domain I peptide (peptide)
peptide: SYRDLWSLRASLELHAATASD
notes: Synthesized by Mimotopes; also called AID-like BARP peptide
binding result: binds
